# Test results as given in patent US6548643.
# T1: H-2D^d class I molecule on P815 cells (mouse) (UniProt P01900)
# T1 sequence (MHC heavy, looked up): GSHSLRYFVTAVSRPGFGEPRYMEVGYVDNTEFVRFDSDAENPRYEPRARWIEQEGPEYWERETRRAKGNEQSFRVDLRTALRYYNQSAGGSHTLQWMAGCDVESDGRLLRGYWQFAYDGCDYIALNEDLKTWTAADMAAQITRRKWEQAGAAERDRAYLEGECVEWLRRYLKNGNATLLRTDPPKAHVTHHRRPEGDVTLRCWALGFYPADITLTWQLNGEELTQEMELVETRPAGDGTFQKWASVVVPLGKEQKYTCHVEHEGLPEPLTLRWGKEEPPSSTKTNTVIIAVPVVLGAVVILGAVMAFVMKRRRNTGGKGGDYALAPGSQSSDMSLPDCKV
# Experiments:
# Test in all cases: cell-based or functional assay
# [1] = target: H-2K^d class I molecule on P815 cells (mouse) (UniProt P01902)
# [2] = target: H-2K^b class I molecule on RMA cells (mouse) (UniProt P01901)
# [3] = target: H-2D^b class I molecule on RMA cells (mouse) (UniProt P01899)
# [4] = target: H-2L^d class I molecule on P815 cells (mouse) (UniProt P01897)
# [5] = target: T1, H-2D^d class I molecule on P815 cells (mouse)
# UniProt P01899, sequence (P01899 25-362): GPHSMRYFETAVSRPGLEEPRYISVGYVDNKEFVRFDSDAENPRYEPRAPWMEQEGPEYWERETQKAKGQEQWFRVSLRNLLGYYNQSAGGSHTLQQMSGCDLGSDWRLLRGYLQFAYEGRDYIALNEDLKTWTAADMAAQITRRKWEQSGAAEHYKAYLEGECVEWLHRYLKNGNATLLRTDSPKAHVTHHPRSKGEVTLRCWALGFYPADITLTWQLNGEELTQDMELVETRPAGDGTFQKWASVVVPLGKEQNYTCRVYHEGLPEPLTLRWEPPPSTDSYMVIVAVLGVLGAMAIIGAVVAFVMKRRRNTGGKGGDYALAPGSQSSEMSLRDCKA
# UniProt P01901, sequence (P01901 22-369): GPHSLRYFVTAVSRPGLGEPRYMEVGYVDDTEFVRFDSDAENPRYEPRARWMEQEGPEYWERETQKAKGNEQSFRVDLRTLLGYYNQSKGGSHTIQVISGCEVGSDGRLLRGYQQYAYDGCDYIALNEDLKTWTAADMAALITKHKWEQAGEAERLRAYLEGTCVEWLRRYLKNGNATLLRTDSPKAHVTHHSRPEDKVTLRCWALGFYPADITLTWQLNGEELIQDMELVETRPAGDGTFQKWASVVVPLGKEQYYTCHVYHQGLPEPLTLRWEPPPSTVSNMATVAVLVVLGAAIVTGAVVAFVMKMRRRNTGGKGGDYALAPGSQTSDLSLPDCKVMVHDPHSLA
# UniProt P01897, sequence (P01897 25-362): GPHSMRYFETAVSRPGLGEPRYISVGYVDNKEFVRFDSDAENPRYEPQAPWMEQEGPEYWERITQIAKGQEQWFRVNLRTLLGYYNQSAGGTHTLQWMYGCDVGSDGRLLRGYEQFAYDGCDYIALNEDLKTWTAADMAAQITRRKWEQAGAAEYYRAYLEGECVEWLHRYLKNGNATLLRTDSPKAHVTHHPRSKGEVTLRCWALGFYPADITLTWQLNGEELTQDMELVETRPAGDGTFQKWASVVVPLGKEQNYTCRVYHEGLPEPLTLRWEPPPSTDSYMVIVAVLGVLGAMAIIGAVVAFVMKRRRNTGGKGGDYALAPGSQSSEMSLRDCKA
# UniProt P01902, sequence (P01902 22-368): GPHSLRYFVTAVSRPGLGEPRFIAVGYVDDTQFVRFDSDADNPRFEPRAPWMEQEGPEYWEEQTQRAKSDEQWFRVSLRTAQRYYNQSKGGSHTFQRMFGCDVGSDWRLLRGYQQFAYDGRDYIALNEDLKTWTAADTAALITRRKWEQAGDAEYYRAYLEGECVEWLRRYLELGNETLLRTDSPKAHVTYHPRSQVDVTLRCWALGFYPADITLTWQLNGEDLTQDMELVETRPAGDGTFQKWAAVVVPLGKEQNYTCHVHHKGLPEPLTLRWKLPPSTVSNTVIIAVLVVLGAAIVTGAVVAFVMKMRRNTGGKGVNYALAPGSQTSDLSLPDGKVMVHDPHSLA
binder,measurement,setting,value
NYGQLDIFP,% lysis of peptide-pulsed P815 target cells by CTL of mannan-HMFG immunised BALB/c mice (51Cr release),[1],0%
AVSMTSSVL,"% lysis of peptide-pulsed P815 target cells by mannan-HMFG CTL, E:T 50:1",[1],77%
same,"% lysis of peptide-pulsed RMA target cells by mannan-HMFG CTL, E:T 50:1",[2],18%
same,"% lysis of peptide-pulsed RMA target cells by mannan-HMFG CTL, E:T 100:1",[2],40%
same,"% lysis of peptide-pulsed RMA target cells by mannan-HMFG CTL, E:T 50:1",[3],18%
same,"% lysis of peptide-pulsed RMA target cells by mannan-HMFG CTL, E:T 100:1",[3],40%
VPSSTEKNA,"% lysis of peptide-pulsed P815 target cells by mannan-HMFG CTL, E:T 50:1",[4],78%
SAPDTRPAP,"% lysis of peptide-pulsed P815 target cells by mannan-HMFG CTL, E:T 50:1",[5],62%
same,% lysis of peptide-pulsed RMA target cells by mannan-HMFG CTL,[2],80%
APDTRPAPG,"% lysis of peptide-pulsed P815 target cells by mannan-HMFG CTL, E:T 50:1",[4],50%
CRRKNYGQL,"% lysis of peptide-pulsed RMA target cells by mannan-HMFG CTL, E:T 50:1",[2],20%
same,"% lysis of peptide-pulsed RMA target cells by mannan-HMFG CTL, E:T 100:1",[2],42%
same,"% lysis of peptide-pulsed RMA target cells by mannan-HMFG CTL, E:T 50:1",[3],20%
same,"% lysis of peptide-pulsed RMA target cells by mannan-HMFG CTL, E:T 100:1",[3],42%
APGSTAPPA,% lysis of peptide-pulsed RMA target cells by mannan-HMFG CTL,[3],70%
YGQLDIFPA,% lysis of peptide-pulsed P815 target cells by CTL of mannan-HMFG immunised BALB/c mice (51Cr release),[5],0%
YYQELQRDI,"% lysis of peptide-pulsed P815 target cells by mannan-HMFG CTL, E:T 50:1",[1],50%
SAPDNRPAL,"% lysis of peptide-pulsed RMA target cells by mannan-HMFG CTL, E:T 50:1",[3],50%
KNYGQLDIF,% lysis of peptide-pulsed P815 target cells by CTL of mannan-HMFG immunised BALB/c mice (51Cr release),[4],0%
SVPSSTEKN,"% lysis of peptide-pulsed P815 target cells by mannan-HMFG CTL, E:T 50:1",[5],0%
